Target: glycophorin A TMD, BLaTM chimera
Experiment: split reporter

“glycophorin A TMD, BLaTM chimera (domain or fragment)” showed an ampicillin LD50 of 100 µg/mL.

— doi:10.1101/2022.11.09.515782
